The values that follow come from article PMC7885266 (Chemical Science, 2020).

To fix the notation:
B1: Tankyrase-2 Ankyrin Repeat Cluster 4 (residues 488-649) (domain or fragment, human, UniProt Q9H2K2 488-649, looked up)
chain: GNSEADRQLLEAAKAGDVETVKKLCTVQSVNCRDIEGRQSTPLHFAAGYNRVSVVEYLLQHGADVHAKDKGGLVPLHNACSYGHYEVAELLVKHGAVVNVADLWKFTPLHEAAAKGKYEICKLLLQHGADPTKKNRDGNTPLDLVKDGDTDIQDLLRGDAAL
notes: human tankyrase 2, fourth ankyrin-repeat cluster (ARC4), residues 488-649; also called hTNKS2 ARC4; TNKS2 ARC4; source: E. coli, purified (IMAC, SEC; His tag removed with thrombin)
B2: 2TBP-CTPR4 (designed binder)
chain: AEAWYNLGNAYYKQGDYQKAIEYYQKALELDPNNREAGDGEEDPRSAEAWYNLGNAYYKQGDYQKAIEYYQKALELDPRSAEAWYNLGNAYYKQGDYQKAIEYYQKALELDPNNREAGDGEEDPRSAEAWYNLGNAYYKQGDYQKAIEYYQKALELDPRS
B3: 4TBP-CTPR8 (designed binder)
chain: AEAWYNLGNAYYKQGDYQKAIEYYQKALELDPNNREAGDGEEDPRSAEAWYNLGNAYYKQGDYQKAIEYYQKALELDPRSAEAWYNLGNAYYKQGDYQKAIEYYQKALELDPNNREAGDGEEDPRSAEAWYNLGNAYYKQGDYQKAIEYYQKALELDPRSAEAWYNLGNAYYKQGDYQKAIEYYQKALELDPNNREAGDGEEDPRSAEAWYNLGNAYYKQGDYQKAIEYYQKALELDPRSAEAWYNLGNAYYKQGDYQKAIEYYQKALELDPNNREAGDGEEDPRSAEAWYNLGNAYYKQGDYQKAIEYYQKALELDPRS
B5: 1TBP-CTPR2 (designed binder)
chain: AEAWYNLGNAYYKQGDYQKAIEYYQKALELDPNNREAGDGEEDPRSAEAWYNLGNAYYKQGDYQKAIEYYQKALELDPRS

Holding throughout (conditions): both partners purified
The assay “1TBP-CTPR2” has as its target B5. The assay can be described thus: ITC; TNKS2 ARC4 (500 μM) titrated into the cell holding one nTBP-CTPR2n construct (50, 25, 16.6 or 12.5 μM); 25 °C; 10 mM sodium phosphate, 150 mM NaCl, 0.5 mM TCEP, pH 7.4; OneSite model. In general terms: In ITC the heat of successive injections is recorded.
The assay “2TBP-CTPR4” concerns the target B2. Described as above.
The target in assay [1] is T1, 3TBP-CTPR6.
T1 chain: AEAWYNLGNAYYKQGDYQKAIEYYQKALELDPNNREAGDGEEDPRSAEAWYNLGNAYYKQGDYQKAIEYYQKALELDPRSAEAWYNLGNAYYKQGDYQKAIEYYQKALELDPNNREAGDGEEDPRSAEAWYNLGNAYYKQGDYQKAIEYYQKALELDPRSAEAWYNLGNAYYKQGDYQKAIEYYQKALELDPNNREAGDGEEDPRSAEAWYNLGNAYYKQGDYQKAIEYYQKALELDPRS
The description is as above.

For the assay “4TBP-CTPR8”, the target named is B3. The description is as above.
The target in assay [2] is B1. The assay is described as above.
For assay [3], the target named is T1, 3TBP-CTPR6. Nature of the assay: co-sedimentation; co-precipitation assay: 10 μM hTNKS2 ARC1–3 mixed with an equal volume of CTPR protein (fixed or increasing concentrations) in 50 mM Tris-HCl, 150 mM NaCl, 0.5 mM TCEP, pH 7.3; 1 h at room temperature, 20 000g 30 min; supernatant and pellet on SDS-PAGE, band densities give the stoichiometry in the pellet.

Several values for one entry are separate records, joined by “and”; a condition that tells them apart may be missing. Equal values may be shown once.

As a reminder, the stoichiometry N is the number of molecules, sites or subunits per partner or assembly. B1: the “stoichiometry N” value with 1TBP-CTPR2 was 1.01 and 0.9; with 2TBP-CTPR4 it was 2.18 and 2.05; in the assay with 3TBP-CTPR6 [1], 2.77 and 2.72; with 4TBP-CTPR8, 3.38 and 2.91. As usually defined, the Kd is the concentration at which binding is half-saturated. Lower therefore signals tighter binding. In the case of B2, the Kd in assay [2] was 11.9 µM and 18.6 µM. For B3, the Kd in assay [2] is 13.6 µM and 15.5 µM.

B4: Tankyrase-2 Ankyrin Repeat Clusters 1-3 (residues 2-485) (domain or fragment, human, UniProt Q9H2K2 2-485, looked up)
chain: SGRRCAGGGAACASAAAEAVEPAARELFEACRNGDVERVKRLVTPEKVNSRDTAGRKSTPLHFAAGFGRKDVVEYLLQNGANVQARDDGGLIPLHNACSFGHAEVVNLLLRHGADPNARDNWNYTPLHEAAIKGKIDVCIVLLQHGAEPTIRNTDGRTALDLADPSAKAVLTGEYKKDELLESARSGNEEKMMALLTPLNVNCHASDGRKSTPLHLAAGYNRVKIVQLLLQHGADVHAKDKGDLVPLHNACSYGHYEVTELLVKHGACVNAMDLWQFTPLHEAASKNRVEVCSLLLSYGADPTLLNCHNKSAIDLAPTPQLKERLAYEFKGHSLLQAAREADVTRIKKHLSLEMVNFKHPQTHETALHCAAASPYPKRKQICELLLRKGANINEKTKEFLTPLHVASEKAHNDVVEVVVKHEAKVNALDNLGQTSLHRAAYCGHLQTCRLLLSYGCDPNIISLQGFTALQMGNENVQQLLQEGI
notes: human tankyrase 2, ankyrin-repeat clusters 1-3, residues 2-485; also called hTNKS2 ARC1–3; source: E. coli, purified (IMAC, SEC; His tag removed with thrombin)
Take B4: the “stoichiometry N” value with 3TBP-CTPR6 [3] was found to be 1. Consider B5, for which the Kd in assay [2] is 14.7 µM and 12.8 µM.
